# ChEMBL document CHEMBL3856203, “β-Lactamases: Why and How” (J Med Chem, 2016)
# B1: Beta-lactamase (Enterobacter cloacae), P05364 (protein)
# chain: MMRKSLCCALLLGISCSALATPVSEKQLAEVVANTITPLMKAQSVPGMAVAVIYQGKPHYYTFGKADIAANKPVTPQTLFELGSISKTFTGVLGGDAIARGEISLDDAVTRYWPQLTGKQWQGIRMLDLATYTAGGLPLQVPDEVTDNASLLRFYQNWQPQWKPGTTRLYANASIGLFGALAVKPSGMPYEQAMTTRVLKPLKLDHTWINVPKAEEAHYAWGYRDGKAVRVSPGMLDAQAYGVKTNVQDMANWVMANMAPENVADASLKQGIALAQSRYWRIGSMYQGLGWEMLNWPVEANTVVEGSDSKVALAPLPVAEVNPPAPPVKASWVHKTGSTGGFGSYVAFIPEKQIGIVMLANTSYPNPARVEAAYHILEALQ
# Substrate: CC(C)(O/N=C(\C(=O)N[C@@H]1C(=O)N2C(C(=O)[O-])=C(C[n+]3ccccc3)CS[C@H]12)c1csc(N)n1)C(=O)O
# Assay: Substrate activity at Enterobacter cloacae beta lactamase P99 expressed in Escherichia coli AS226-51 cells by UV spectrophotometric method
protein,measurement,value
B1,kcat,7 ×10⁻³ /s
